The target in the assay is glucagon receptor (UniProt P47871). Description: cell-based or functional assay.
Chain of glucagon receptor (P47871 26-477 limits assumed): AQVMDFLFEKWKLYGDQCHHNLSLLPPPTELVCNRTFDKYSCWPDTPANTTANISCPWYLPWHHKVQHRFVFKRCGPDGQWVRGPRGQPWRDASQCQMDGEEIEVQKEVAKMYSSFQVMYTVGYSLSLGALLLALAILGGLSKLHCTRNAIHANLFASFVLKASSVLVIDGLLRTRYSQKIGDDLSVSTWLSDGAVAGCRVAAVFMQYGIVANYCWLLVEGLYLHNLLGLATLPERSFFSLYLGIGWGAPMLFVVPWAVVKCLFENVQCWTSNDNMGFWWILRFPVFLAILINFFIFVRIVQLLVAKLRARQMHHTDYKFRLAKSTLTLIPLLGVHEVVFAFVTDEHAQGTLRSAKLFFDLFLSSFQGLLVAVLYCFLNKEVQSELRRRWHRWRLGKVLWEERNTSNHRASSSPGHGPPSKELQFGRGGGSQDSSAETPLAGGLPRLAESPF

Liraglutide (peptide) displayed a % relative activity of 0.04%.

The values are drawn from patent US20120172295A1.
